Source: patent US20260242735A1

What was measured:
[1] = biological target: human wild-type CD33 (human) (UniProt P20138); test: flow cytometry, IgG at 0.25 ug/ml on HEK293-T cells expressing CD33 against vector alone
human CD33 R291A (human) = human CD33 R291A (human) (UniProt P20138); test: flow cytometry, HEK293-T, alanine scan
human CD33 S323A (human) = human CD33 S323A (human) (UniProt P20138); test: flow cytometry, HEK293-T, alanine scan
human CD33 C276A (human) = human CD33 C276A (human) (UniProt P20138); test: flow cytometry, HEK293-T, alanine scan
human CD33 I47N (human) = human CD33 I47N (human) (UniProt P20138); test: flow cytometry on transfected cells, IgG
human CD33 T42P (human) = human CD33 T42P (human) (UniProt P20138); test: flow cytometry on transfected cells, IgG
human CD33 P46L (human) = human CD33 P46L (human) (UniProt P20138); test: flow cytometry on transfected cells, IgG
human CD33 P48F (human) = human CD33 P48F (human) (UniProt P20138); test: flow cytometry on transfected cells, IgG
human CD33 I47G (human) = human CD33 I47G (human) (UniProt P20138); test: flow cytometry on transfected cells, IgG
human CD33 P48S (human) = human CD33 P48S (human) (UniProt P20138); test: flow cytometry on transfected cells, IgG
human CD33 P48K (human) = human CD33 P48K (human) (UniProt P20138); test: flow cytometry on transfected cells, IgG
human CD33 P46Y (human) = human CD33 P46Y (human) (UniProt P20138); test: flow cytometry on transfected cells, IgG
Chain of human CD33 P46Y (human) (P20138 18-364 P46Y limits assumed): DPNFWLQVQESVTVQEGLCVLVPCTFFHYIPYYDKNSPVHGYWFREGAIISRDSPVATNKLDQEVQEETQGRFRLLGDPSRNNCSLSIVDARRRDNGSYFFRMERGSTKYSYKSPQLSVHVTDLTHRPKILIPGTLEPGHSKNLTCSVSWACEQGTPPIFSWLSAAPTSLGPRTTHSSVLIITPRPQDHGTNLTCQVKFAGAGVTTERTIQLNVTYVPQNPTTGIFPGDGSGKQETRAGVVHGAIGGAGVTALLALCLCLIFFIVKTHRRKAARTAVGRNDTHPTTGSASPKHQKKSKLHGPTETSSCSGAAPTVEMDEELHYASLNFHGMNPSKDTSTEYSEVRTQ

human CD33 P48N (human) = human CD33 P48N (human) (UniProt P20138); test: flow cytometry on transfected cells, IgG
human CD33 I47L (human) = human CD33 I47L (human) (UniProt P20138); test: flow cytometry on transfected cells, IgG
Chain of human CD33 I47L (human) (P20138 18-364 I47L limits assumed): as the sequence (P20138 18-364 P46Y limits assumed) above, with Y29P, I30L counted along it

human CD33 F44E (human) = human CD33 F44E (human) (UniProt P20138); test: flow cytometry on transfected cells, IgG
human CD33 Y50N (human) = human CD33 Y50N (human) (UniProt P20138); test: flow cytometry on transfected cells, IgG
human CD33 I47R (human) = human CD33 I47R (human) (UniProt P20138); test: flow cytometry on transfected cells, IgG
human CD33 Y49P (human) = human CD33 Y49P (human) (UniProt P20138); test: flow cytometry on transfected cells, IgG
human CD33 Y50Q (human) = human CD33 Y50Q (human) (UniProt P20138); test: flow cytometry on transfected cells, IgG
human CD33 P48G (human) = human CD33 P48G (human) (UniProt P20138); test: flow cytometry on transfected cells, IgG
Chain of human CD33 P48G (human) (P20138 18-364 P48G limits assumed): as the sequence (P20138 18-364 P46Y limits assumed) above, with Y29P, P31G counted along it

human CD33 F43L (human) = human CD33 F43L (human) (UniProt P20138); test: flow cytometry on transfected cells, IgG
human CD33 Y49H (human) = human CD33 Y49H (human) (UniProt P20138); test: flow cytometry on transfected cells, IgG
human CD33 T42N (human) = human CD33 T42N (human) (UniProt P20138); test: flow cytometry on transfected cells, IgG
human CD33 T42K (human) = human CD33 T42K (human) (UniProt P20138); test: flow cytometry on transfected cells, IgG
Chain of human CD33 T42K (human) (P20138 18-364 T42K limits assumed): as the sequence (P20138 18-364 P46Y limits assumed) above, with T25K, Y29P counted along it

human CD33 P48D (human) = human CD33 P48D (human) (UniProt P20138); test: flow cytometry on transfected cells, IgG
Chain of human CD33 P48D (human) (P20138 18-364 P48D limits assumed): as the sequence (P20138 18-364 P46Y limits assumed) above, with Y29P, P31D counted along it

human CD33 Y50G (human) = human CD33 Y50G (human) (UniProt P20138); test: flow cytometry on transfected cells, IgG
Chain of human CD33 Y50G (human) (P20138 18-364 Y50G limits assumed): as the sequence (P20138 18-364 P46Y limits assumed) above, with Y29P, Y33G counted along it

human CD33 P48T (human) = human CD33 P48T (human) (UniProt P20138); test: flow cytometry on transfected cells, IgG
Chain of human CD33 P48T (human) (P20138 18-364 P48T limits assumed): as the sequence (P20138 18-364 P46Y limits assumed) above, with Y29P, P31T counted along it

human CD33 Y50D (human) = human CD33 Y50D (human) (UniProt P20138); test: flow cytometry on transfected cells, IgG
human CD33 Y50I (human) = human CD33 Y50I (human) (UniProt P20138); test: flow cytometry on transfected cells, IgG
Chain of human CD33 Y50I (human) (P20138 18-364 Y50I limits assumed): as the sequence (P20138 18-364 P46Y limits assumed) above, with Y29P, Y33I counted along it

human CD33 P48L (human) = human CD33 P48L (human) (UniProt P20138); test: flow cytometry on transfected cells, IgG
human CD33 F44D (human) = human CD33 F44D (human) (UniProt P20138); test: flow cytometry on transfected cells, IgG
human CD33 Y49T (human) = human CD33 Y49T (human) (UniProt P20138); test: flow cytometry on transfected cells, IgG
human CD33 P46H (human) = human CD33 P46H (human) (UniProt P20138); test: flow cytometry on transfected cells, IgG
human CD33 I47W (human) = human CD33 I47W (human) (UniProt P20138); test: flow cytometry on transfected cells, IgG
human CD33 P48I (human) = human CD33 P48I (human) (UniProt P20138); test: flow cytometry on transfected cells, IgG
human CD33 F44I (human) = human CD33 F44I (human) (UniProt P20138); test: flow cytometry on transfected cells, IgG
Chain of human CD33 F44I (human) (P20138 18-364 F44I limits assumed): as the sequence (P20138 18-364 P46Y limits assumed) above, with F27I, Y29P counted along it

human CD33 Y50R (human) = human CD33 Y50R (human) (UniProt P20138); test: flow cytometry on transfected cells, IgG
Chain of human CD33 Y50R (human) (P20138 18-364 Y50R limits assumed): as the sequence (P20138 18-364 P46Y limits assumed) above, with Y29P, Y33R counted along it

human CD33 F44T (human) = human CD33 F44T (human) (UniProt P20138); test: flow cytometry on transfected cells, IgG
human CD33 P48M (human) = human CD33 P48M (human) (UniProt P20138); test: flow cytometry on transfected cells, IgG
human CD33 Y49V (human) = human CD33 Y49V (human) (UniProt P20138); test: flow cytometry on transfected cells, IgG
human CD33 P48H (human) = human CD33 P48H (human) (UniProt P20138); test: flow cytometry on transfected cells, IgG
Chain of human CD33 P48H (human) (P20138 18-364 P48H limits assumed): as the sequence (P20138 18-364 P46Y limits assumed) above, with Y29P, P31H counted along it

human CD33 F44P (human) = human CD33 F44P (human) (UniProt P20138); test: flow cytometry on transfected cells, IgG
human CD33 Y50H (human) = human CD33 Y50H (human) (UniProt P20138); test: flow cytometry on transfected cells, IgG
human CD33 P48Y (human) = human CD33 P48Y (human) (UniProt P20138); test: flow cytometry on transfected cells, IgG
Chain of human CD33 P48Y (human) (P20138 18-364 P48Y limits assumed): as the sequence (P20138 18-364 P46Y limits assumed) above, with Y29P, P31Y counted along it

human CD33 Y49C (human) = human CD33 Y49C (human) (UniProt P20138); test: flow cytometry on transfected cells, IgG
human CD33 F44Q (human) = human CD33 F44Q (human) (UniProt P20138); test: flow cytometry on transfected cells, IgG
Chain of human CD33 F44Q (human) (P20138 18-364 F44Q limits assumed): as the sequence (P20138 18-364 P46Y limits assumed) above, with F27Q, Y29P counted along it

human CD33 P48W (human) = human CD33 P48W (human) (UniProt P20138); test: flow cytometry on transfected cells, IgG

Chain of human CD33 R291A (human) (P20138 18-364 R291A limits assumed): as the sequence (P20138 18-364 P46Y limits assumed) above, with Y29P, R274A counted along it

## Refmab #7 (WM53) (antibody)
[1]
  Signal:Background (signal:background ratio): 32
Human CD33 R291A (human)
  Mean % WT Binding: 120 % WT binding
Human CD33 S323A (human)
  Mean % WT Binding: 109 % WT binding
Human CD33 C276A (human)
  Mean % WT Binding: 110 % WT binding
Human CD33 I47N (human)
  Mean % WT Binding: 4.7 % WT binding
Human CD33 T42P (human)
  Mean % WT Binding: 15.9 % WT binding
Human CD33 P46L (human)
  Mean % WT Binding: 66.8 % WT binding
Human CD33 P48F (human)
  Mean % WT Binding: 0.2 % WT binding
Human CD33 I47G (human)
  Mean % WT Binding: 15.1 % WT binding
Human CD33 P48S (human)
  Mean % WT Binding: 2.6 % WT binding
Human CD33 P48K (human)
  Mean % WT Binding: 1.6 % WT binding
Human CD33 P46Y (human)
  Mean % WT Binding: 8.6 % WT binding
Human CD33 P48N (human)
  Mean % WT Binding: 4.3 % WT binding
Human CD33 I47L (human)
  Mean % WT Binding: 37.4 % WT binding
Human CD33 F44E (human)
  Mean % WT Binding: 18.3 % WT binding
Human CD33 Y50N (human)
  Mean % WT Binding: 4.7 % WT binding
Human CD33 I47R (human)
  Mean % WT Binding: 2 % WT binding
Human CD33 Y49P (human)
  Mean % WT Binding: 11.7 % WT binding
Human CD33 Y50Q (human)
  Mean % WT Binding: 7.2 % WT binding
Human CD33 P48G (human)
  Mean % WT Binding: 13.3 % WT binding
Human CD33 F43L (human)
  Mean % WT Binding: 94 % WT binding
Human CD33 Y49H (human)
  Mean % WT Binding: 27.8 % WT binding
Human CD33 T42N (human)
  Mean % WT Binding: 95.4 % WT binding
Human CD33 T42K (human)
  Mean % WT Binding: 77 % WT binding
Human CD33 P48D (human)
  Mean % WT Binding: 0.1 % WT binding
Human CD33 Y50G (human)
  Mean % WT Binding: 17.2 % WT binding
Human CD33 P48T (human)
  Mean % WT Binding: 1.6 % WT binding
Human CD33 Y50D (human)
  Mean % WT Binding: 1.2 % WT binding
Human CD33 Y50I (human)
  Mean % WT Binding: 5.1 % WT binding
Human CD33 P48L (human)
  Mean % WT Binding: 0.3 % WT binding
Human CD33 F44D (human)
  Mean % WT Binding: 9.5 % WT binding
Human CD33 Y49T (human)
  Mean % WT Binding: 0.1 % WT binding
Human CD33 P46H (human)
  Mean % WT Binding: 94.3 % WT binding
Human CD33 I47W (human)
  Mean % WT Binding: 45.4 % WT binding
Human CD33 P48I (human)
  Mean % WT Binding: 0.1 % WT binding
Human CD33 F44I (human)
  Mean % WT Binding: 46.1 % WT binding
Human CD33 Y50R (human)
  Mean % WT Binding: 1.7 % WT binding
Human CD33 F44T (human)
  Mean % WT Binding: 31.7 % WT binding
Human CD33 P48M (human)
  Mean % WT Binding: 3.2 % WT binding
Human CD33 Y49V (human)
  Mean % WT Binding: 0.9 % WT binding
Human CD33 P48H (human)
  Mean % WT Binding: 1.6 % WT binding
Human CD33 F44P (human)
  Mean % WT Binding: 21.8 % WT binding
Human CD33 Y50H (human)
  Mean % WT Binding: 18 % WT binding
Human CD33 P48Y (human)
  Mean % WT Binding: 0.5 % WT binding
Human CD33 Y49C (human)
  Mean % WT Binding: 0.6 % WT binding
Human CD33 F44Q (human)
  Mean % WT Binding: 74.8 % WT binding
Human CD33 P48W (human)
  Mean % WT Binding: 0.7 % WT binding
